Assay results from PMC7126280 (Structure (London, England : 1993), 2006).

Target: the molecule itself
Assay: AUC + other: dynamic light scattering

B1: SARS-CoV ORF-9b protein (natural protein)
chain: MDPNQTNVVPPALHLVDPQIQLTITRMEDAMGQGQNSADPKVYPIILRLGSQLSLSMARRNLDSLEARAFQSTPIVVQMTKLATTEELPDEFVVVTAK
  stoichiometry N: 2
